The results in this text go back to patent US20210130491A1 (ONCOTAG DIAGNOSTICS, published 2021).

Experiment [1] concerns the target T1, co-purified MRS-AIMP3 protein (human, UniProt P56192 1-900; O43324 1-174, limits assumed).
T1 construct: MRS and AIMP3 co-expressed in E. coli BL21DE3 and co-purified
T1 sequence 1: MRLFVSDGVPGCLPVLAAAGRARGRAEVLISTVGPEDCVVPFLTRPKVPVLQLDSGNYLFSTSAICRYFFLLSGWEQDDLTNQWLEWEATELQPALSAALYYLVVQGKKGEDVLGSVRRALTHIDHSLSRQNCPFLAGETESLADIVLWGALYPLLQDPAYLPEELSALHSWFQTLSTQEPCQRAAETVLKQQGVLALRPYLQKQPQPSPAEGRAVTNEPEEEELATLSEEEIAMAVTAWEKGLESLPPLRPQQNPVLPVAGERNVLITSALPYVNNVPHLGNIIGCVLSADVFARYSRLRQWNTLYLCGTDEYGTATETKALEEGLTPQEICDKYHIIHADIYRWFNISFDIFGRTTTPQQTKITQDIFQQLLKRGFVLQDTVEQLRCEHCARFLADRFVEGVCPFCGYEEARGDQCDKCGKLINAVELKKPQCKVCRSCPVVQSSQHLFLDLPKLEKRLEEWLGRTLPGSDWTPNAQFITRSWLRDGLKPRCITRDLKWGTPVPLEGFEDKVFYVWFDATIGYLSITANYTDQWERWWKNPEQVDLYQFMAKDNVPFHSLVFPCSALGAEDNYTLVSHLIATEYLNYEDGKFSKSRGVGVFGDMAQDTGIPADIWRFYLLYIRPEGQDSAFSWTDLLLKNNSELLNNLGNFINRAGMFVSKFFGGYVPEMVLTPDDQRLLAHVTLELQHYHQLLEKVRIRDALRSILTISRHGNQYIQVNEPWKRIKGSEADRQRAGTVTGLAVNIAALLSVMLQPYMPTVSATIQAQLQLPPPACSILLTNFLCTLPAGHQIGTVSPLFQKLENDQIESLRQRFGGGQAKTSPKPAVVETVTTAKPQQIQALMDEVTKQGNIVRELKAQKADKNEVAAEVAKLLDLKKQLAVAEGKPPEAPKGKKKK
T1 sequence 2: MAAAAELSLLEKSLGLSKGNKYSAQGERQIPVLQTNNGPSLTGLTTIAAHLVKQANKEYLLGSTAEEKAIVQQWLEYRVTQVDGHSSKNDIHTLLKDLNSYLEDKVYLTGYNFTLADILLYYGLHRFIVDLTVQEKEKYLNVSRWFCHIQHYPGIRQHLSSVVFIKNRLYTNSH
As to the kind of experiment: SPR, CM5 chip coated with MRS+AIMP3, antibody flowed at 0.39 to 200 nM. As for the experimental part: (§1) Surface plasmon resonance (SPR) experiments were carried out using 1E8 and 8A12 antibodies and MRS+AIMP3 protein obtained in Example 1.
(§2) CM5 chips were coated with MRS+AIMP3 or AIMP3 proteins and 1E8 or 8A12 antibodies were flowed at various concentrations to measure the degree of binding reaction with the proteins. Samples or buffers were injected for 8 minutes at a flow rate of 30 μl/min and washed for 20 minutes.

The target in experiment [2] is T1, co-purified MRS-AIMP3 protein. As to the kind of experiment: SPR, MRS+AIMP3 on CM5 chip, antibody flowed; 8A12 antibody; MRS+AIMP3 on the chip. As for the experimental part:
as §1, §2

The target is the same in experiment [3]. The experiment can be described thus: SPR, CM5 chip coated with MRS+AIMP3, antibody flowed at 0.20 to 200 nM. As for the experimental part:
as §1, §2

Experiment [4] has the same target. As to the kind of experiment: SPR, MRS+AIMP3 on CM5 chip, antibody flowed; 1E8 antibody; MRS+AIMP3 on the chip. As for the experimental part: as §1, §2

B1: 8A12 antibody (8A12 IgG) (antibody, V domains shown)
VH: DVKLQESGPGLVKPSQSLSLTCTVTGYSITSEYAWTWIRQFPGNKLEWMGYINYNGNTNLNPSLKSRISIIRDTSKNQFFLQLNSVTTEDTATYYCARSLWPRGWFAYWGQGTLVTVSA
VL: DIQMTQSPSSMYASLGERVTITCKASQDINSYLSWFQQKPGKSPKTLMYRANRLVDGVPSRFSGSGSGQDYSLTISSLEYEDMGIYYCLQYDEFPRTFGGGTKLEIKA
notes: Mouse monoclonal from hybridoma clone 8A12; also called 8Al2; anti-MRS antibody (8A12)
With B1, in experiment [1], the koff came out at 0.000213 s⁻¹ and the on-rate (kon) turned out to be 137000 M⁻¹ s⁻¹. This molecule returned a Kd in experiment [2] of 1.56 nM.

B2: 1E8 antibody (1E8 IgG) (antibody, V domains shown)
VH: DVKLQESGPGLVNPSQSLSLTCTVTGYSITSDYAWNWIRQFPGNKLEWMGYISYSGRTSYKSSLKSRISITRDTSKNQFFLELNSVTTEDTATYYCARDYGNFVGYFDVWGAGTTVTVSS
VL: DIVMTQSPSSLAVSVGEKVTMSCKSSQSLLYSSNQKNYLAWYQQKPGQSPKLLIYWASTRESGVPDRFTGSGSGTEFTLTISSVKAEDLAVYYCQQYYSYPTFGGGTKLEIKA
notes: Mouse monoclonal from hybridoma clone 1E8; also called IE8; anti-MRS antibody (1E8)
In experiment [3], B2 displayed a koff of 0.000526 s⁻¹ and an on-rate constant (kon) of 97100 M⁻¹ s⁻¹. Further, binding in experiment [4] was characterised by a dissociation constant (Kd) of 5.42 nM.
